The values that follow come from the RNAGym collection of RNA variant scans (doi:10.7554/elife.90254).

B1: OR4K15 (parent)
chain: GUUAACGGUCAUAGGCCAUGGAAACUAGGAGCACCAUUUCGCUGCCAGUGAAGAAAUGAACAAAGAAAAUCUGGGCCAGGCAGGCAUCAAAAGAAAUAGUCUUGCGCUCAACCAGAAAGUCUGUAAUCAUUUUAAGGGUA

In this data set the parent is B1. Nature of the data set: self-cleavage, relative activity (ratio to wild type); higher = more cleavage; in vitro, sequencing; the parent is a self-cleaving ribozyme.
Consider U133C A135G, for which the self-cleavage was found to be 0.03.
For A33G A54C, the self-cleavage is 0.95.
The same measure for A13G C107A: 0.19; for U2A A52G: 0.8; for A30G G53C: 1.95.
For A59U A68G, the self-cleavage was found to be 1.43.
The same measure for A59G A91G: 0.8.
Under A66G A67C stands 1.66.
Under A82U A140U stands 0.24; under A5U U70C, 1.03.
Consider U19C U122A, for which the self-cleavage is 0.65.
As to U19C U122C, the self-cleavage came to 0.46.
Turning to U2C U49C, the self-cleavage was determined as 1.34.
With U131C U139C, the self-cleavage amounted to 0.46.
The same measure for A24C A54G: 1.21; for G58A G106A: 0.01; for A68G A86C: 0.72.
The same measure for U19A U57C: 0.67; for A91U A114G: 0.62.
Turning to A23G U37A, the self-cleavage turned out to be 1.24.
The same measure for A59U A116U: 0.2.
The same measure for U19C A92U: 1.93; for A98G A118G: 0.26; for C109U A135G: 0.38.
The same measure for A54C A118G: 1.49.
As to U49C U130C, the self-cleavage worked out at 0.77.
Consider A66G U124A, for which the self-cleavage is 1.19.
For the variant A68G C112U, the self-cleavage was found to be 0.02.
The same measure for U2C U132C: 1.4; for C81U C112U: 0.01; for G84U: 0.7.
The same measure for A18U A51G: 1.4; for A55U U127C: 0.93; for A33U A118C: 1.06.
The same measure for U72G A90G: 0.39.
Regarding A5C A66U, the self-cleavage came out at 0.83.
The same measure for A78G U103A: 0.08; for C40U A98G: 0.83.
Regarding C61U A117G, the self-cleavage was determined as 1.54.
The same measure for A13G A95G: 1; for U38A A118G: 2.73.
Under A18U A33G stands 0.61.
As for U26C C76U, the self-cleavage is 0.09.
Under C112G stands 0.02; under A63G U102C, 1.43; under G53A G75A, 0.09.
Under G73U A116G stands 0.11; under G15A A24G, 1.4.
Under U43C U103A stands 0.41.
Turning to U102C U133G, the self-cleavage stood at 2.02.
The same measure for U49C A135C: 0.89.
The same measure for G14C: 1.4.
A62U G84C: the self-cleavage was determined as 0.25.
The same measure for A36G C76A: 0.12; for A33G A52U: 1.42.
The same measure for U57A U87C: 0.92; for U97C A114G: 0.13.
Under U2C A82G stands 0.55; under U2A U132C, 1.21; under A59U U103G, 0.04.
U19A A92G: the self-cleavage was 1.47.
The same measure for U43G A114U: 0.1; for U102A A140G: 1.02.
Under U102A G119A stands 1.23.
Under A63C A126G stands 0.99.
Turning to A27G A56G, the self-cleavage worked out at 1.57.
The same measure for A24U G28C: 1.02.
With U70A A135G, the self-cleavage is 0.74.
Under A86U A118G stands 1.33; under U3C G48A, 0.97; under A63G C107U, 0.01.
Under A64U A116G stands 0.21; under A64G U97C, 1.63; under A59G A129C, 0.55.
The same measure for G15A C113G: 0.02.
On to A18G A66G, for which the self-cleavage worked out at 1.81.
On to A91G G93A, for which the self-cleavage came to 1.82.
Under G99A U102A stands 0.1; under A52G A78U, 0.47.
The same measure for A89G G115U: 0.11.
The same measure for A91G A116U: 0.12; for A51G G79U: 0.1; for G48U U103C: 0.49.
On to A47G A86G, for which the self-cleavage was determined as 1.25.
The same measure for G83A U103C: 0.41; for A4U A47G: 0.
The same measure for U49A A91G: 1.
The same measure for U102A U130C: 0.43; for A18C A129G: 0.75.
Regarding A51U A94U, the self-cleavage was 1.26.
Take A30U A47G: the self-cleavage was determined as 0.97.
Turning to U38A A54G, the self-cleavage was 0.28.
As for A64U A89U, the self-cleavage was 0.92.
On to A56C A66G, for which the self-cleavage amounted to 0.72.
The same measure for A47U A59G: 0.62; for A47C A59C: 1.35; for U43A A86G: 1.6.
As to C10U, the self-cleavage was found to be 0.84.
The same measure for A24G U122A: 1.19; for A55U A117G: 1.77.
As for A55U A117U, the self-cleavage was 0.72.
The same measure for G7A C34U: 1.3; for A63G U130C: 1.13; for A27G U124C: 0.9.
Under U49C U122C stands 0.52.
The same measure for A24G A52U: 0.64; for C105A A134G: 0.05; for A22G U122C: 0.86.
Turning to U37C G84A, the self-cleavage was determined as 1.7.
Under A4C C81U stands 0.79.
Under U38A A94U stands 1.28; under G80A A92G, 0.16; under A86U A116G, 0.59.
Take U39C A126G: the self-cleavage came out at 1.18.
The same measure for C81U A86G: 0.17; for A30U U108C: 0.02; for G21A A96C: 0.6.
Take G14U U38C: the self-cleavage came out at 0.66.
As for U9C A96U, the self-cleavage was 1.72.
Under A98U A111G stands 0.01; under A36G U37C, 1.71; under U43C U132C, 1.27.
Under A78U U122A stands 0.31.
Under U72A U120A stands 0.17.
Take A117G A129U: the self-cleavage came to 1.01.
Under A117U stands 0.59; under A30G A55U, 1.44.
The same measure for U19C A51U: 1; for A18G A90U: 2.38; for A18G A90G: 1.36.
Under A4G A30G stands 0.64.
Turning to U49G A67C, the self-cleavage turned out to be 1.97.
The same measure for A96C U100A: 0.96; for A56G A94G: 1.29; for A78U G138A: 0.36.
The same measure for U38C G84A: 2.05; for A60U A95G: 1.6.
Under A67G A98G stands 0.36; under U26C A91G, 1.26; under A18U A22G, 1.12.
For the variant U26A A66C, the self-cleavage is 0.9.
Under U103C U122C stands 0.55.
In the case of U37G A90G, the self-cleavage was 0.38.
The same measure for U108C A116G: 0.01.
The same measure for U87C A91G: 1.06; for A78G G106C: 0.02.
The same measure for A89U U124C: 1.38; for U9C U39A: 1.33; for A64G A129U: 0.99.
On to A118G C121A, for which the self-cleavage stood at 2.97.
On to A78C G79A, for which the self-cleavage stood at 0.16.
In the case of A24U U108C, the self-cleavage turned out to be 0.02.
The same measure for U39C C71U: 0.29.
U70C A116U: the self-cleavage amounted to 0.34.
Under A54G U131C stands 1.3; under A86C U130C, 0.29.
On to A4G G14U, for which the self-cleavage was 0.67.
Under A111U U122C stands 0.08.
The same measure for A94U U122C: 2.05; for A69C G84U: 0.82; for A47G A69G: 0.93.
Under U26A A59G stands 1.18; under U102A A135U, 0.49; under A30U G79U, 0.09.
Regarding A36U A129G, the self-cleavage worked out at 1.12.
The same measure for A18U U133C: 2.02.
The same measure for U72C C81A: 0.26.
